# Residue numbers refer to the chain shown, from its start.
# B1: antizyme-mRuby2 (AZ-mRuby2), recombinant fusion protein (natural protein)
# chain: not shown
# notes: antizyme (human OAZ1 gene, codon optimised for E. coli and synthesised de novo); also called hOAZ1; source: E. coli (pBAD vector, codon-optimised gene), purified recombinant
# Legend:
# Experiment in all cases: FRET or BRET; AZ-mRuby2 titrated (100 pM-1 µM) to a fixed concentration of Clover-AZIN1 variants (50 nM); TBS pH 7.4 + 0.15% Tween-20; equilibrated at room temp for 1 h; donor quenching fitted
# Settings in all cases: both partners purified
# [1] = biological target: T1, Clover-AZIN1 S367N mutant, recombinant fusion protein (human, UniProt O14977 1-448, S367N)
# T1 construct: source: E. coli (pBAD vector), purified recombinant; not shown: Clover, N-terminal, kept
# T1 sequence (looked up): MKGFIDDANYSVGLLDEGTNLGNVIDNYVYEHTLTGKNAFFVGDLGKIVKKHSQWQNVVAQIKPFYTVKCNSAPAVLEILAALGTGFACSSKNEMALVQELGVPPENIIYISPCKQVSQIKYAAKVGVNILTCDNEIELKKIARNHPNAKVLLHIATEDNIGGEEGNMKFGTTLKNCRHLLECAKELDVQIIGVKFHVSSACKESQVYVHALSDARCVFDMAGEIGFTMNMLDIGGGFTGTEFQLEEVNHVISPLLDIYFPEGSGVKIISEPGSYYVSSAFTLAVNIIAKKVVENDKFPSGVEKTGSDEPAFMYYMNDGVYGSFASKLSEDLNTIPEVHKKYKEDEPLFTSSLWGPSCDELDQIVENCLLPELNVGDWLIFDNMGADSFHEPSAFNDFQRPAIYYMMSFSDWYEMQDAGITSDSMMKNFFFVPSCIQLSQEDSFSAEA
# [2] = biological target: T2, Clover-AZIN1 (wild type), recombinant fusion protein (human, UniProt O14977 1-448)
# T2 construct: The vector encodes the 6X-HIS-tagged fluorescent protein with a TEV protease cleavage site; also called wild-type protein; hAZIN1; source: E. coli (pBAD vector), purified recombinant; not shown: Clover, N-terminal, kept
# T2 sequence (looked up): T1 sequence (looked up) with N367S
# [3] = biological target: T3, Clover-AZIN1 S367G (edited AZIN1), recombinant fusion protein (human, UniProt O14977 1-448, S367G)
# T3 construct: Point mutation introduced by PCR-based site-directed mutagenesis; source: E. coli (pBAD vector), purified recombinant; not shown: Clover, N-terminal, kept
# T3 sequence (looked up): T1 sequence (looked up) with N367G
# [4] = biological target: T4, Clover-AZIN1 S367A mutant, recombinant fusion protein (human, UniProt O14977 1-448, S367A)
# T4 construct: source: E. coli (pBAD vector), purified recombinant; not shown: Clover, N-terminal, kept
# T4 sequence (looked up): T1 sequence (looked up) with N367A
binder,measurement,setting,value
B1,Kd,[1],40 nM
same,Kd,[2],22 nM
same,Kd,[3],57 nM
same,Kd,[4],39 nM

# From PMC9636422, “AZIN1 RNA editing alters protein interactions, leading to nuclear translocation and worse outcomes in prostate cancer” (Experimental & Molecular Medicine, 2022)
